Test results reported in the supplement of paper PMC11908140.

B1: library; numbered along this chain (parent)
chain: MRKPRAAVGSGHRKQAASQEGRQKHAKNNSQAKPSACDGLARQPEEVVLQASVSSYHLFRDVAEVTAFRGSLLSWYDQEKRDLPWRRRAEDEMDLDRRAYAVWVSEVMLQQTQVATVINYYTGWMQKWPTLQDLASASLEEVNQLWAGLGYYSRGRRLQEGARKVVEELGGHMPRTAETLQQLLPGVGRYTAGAIASIAFGQATGVVDGNVARVLCRVRAIGADPSSTLVSQQLWGLAQQLVDPARPGDFNQAAMELGATVCTPQRPLCSQCPVESLCRARQRVEQEQLLASGSLSGSPDVEECAPNTGQCHLCLPPSEPWDQTLGVVNFPRKASRKPPREESSATCVLEQPGALGAQILLVQRPNSGLLAGLWEFPSVTWEPSEQLQRKALLQELQRWAGPLPATHLRHLGEVVHTFSHIKLTYQVYGLALEGQTPVTTVPPGARWLTQEEFHTAAVSTAMKKVFRVYQGQQPGTCMGSKRSQVSSPCSRKKPRMGQQVLDNFFRSHISTDAHSLNSAAQ

Variants of: B1
Assay: 8OG:A repair function score (normalized; synonymous = 0, nonsense = -1) (normalized log-likelihood score); higher = more repair activity (WT-like)
Settings: with 8OG:A DNA repair reporter (GFP) in HEK-293 MUTYH KO cells
In short: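 Lentiviral MUTYH cDNA NNN codon-scan libraries in HEK-293 MUTYH knockout cells (10 pg/ml doxycycline) were co-transfected with an 8OG:A GFP repair reporter plus mCherry. At 72 h, viable mCherry+ cells were sorted into GFP+ (repair) and GFP− bins, three replicates per tile, then tile amplicons were sequenced. Per-tile Rosace fitness scores became a normalized repair function score anchored on synonymous and nonsense distributions. Synonymous medians were set to 0 and nonsense to -1; variants under 300 counts per million at the start were removed.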

8OG:A repair function score of substitutions, site by site:
E341: A 0.0808, N -0.0613, K -0.0881, C -0.0275, G -0.208, T 0.0246, F -0.0534, I -0.0537, Y -0.00525, W 0.0472, L -0.00796, H 0.0806, Q -0.0264, V -0.0649, R 0.0117, S -0.0269, P -0.0298, D -0.0128
K337: Q -0.0917, S -0.109, T -0.131, A -0.0726, L -0.136, I -0.106, D -0.151, Y -0.118, V -0.116, G -0.0801, C -0.225, W -0.0779, H -0.0482, E -0.0878, F -0.221, P 0.0544, M -0.112, N -0.132, R 0.000179
R340: A -0.0533, N -0.24, Q -0.171, K -0.0186, D -0.385, C -0.18, Y -0.205, F -0.491, V -0.304, L -0.211, T -0.0938, P -0.328, G -0.129, M -0.107, H -0.253, E -0.133, W -0.144, I -0.119, S -0.153
R336: P -0.136, L -0.22, S -0.097, I -0.113, N -0.101, V -0.148, T -0.118, H -0.173, G -0.112, Q -0.218, W -0.0779, Y -0.18, M -0.117, K -0.0529
P339: N -0.17, A -0.12, W -0.126, V -0.0967, H 0.0544, C -0.157, M -0.0671, F -0.187, S -0.0594, G -0.00599, I -0.0749, E -0.374, Y -0.144, L -0.113, Q -0.0157, D -0.41, R -0.0864, K -0.0247, T -0.0529
A345: C 0.0391, E -0.567, D -0.542
S344: W -0.0913, D -0.196, P -0.301, T 0.00415, C 0.0475, L 0.00107, H 0.0531, M 0.0335, F -0.0252, E -0.0813, V -0.00413, Q 0.019, K 0.0408, I -0.0592, A 0.0466, R -0.0609, N 0.0332, Y 0.0271
S343: C 0.00733, Q -0.144, T -0.0419, L -0.124, P -0.144, V 0.0196, M 0.0865, A 0.0302, R 0.0819, H 0.00619, K 0.133, G -0.00518, E -0.015, F -0.0296, W -0.0714, Y 0.129, I -0.0485, D 0.0576, N -0.0331
E342: C 0.0508, I -0.00523, F -0.0595, W -0.279, T -0.0198, P -0.298, H 0.0491, Q 0.0267, A -0.0199, R 0.0113, Y -0.0601, G -0.00875, L 0.0472, K 0.0199, M 0.0246, N 0.0275, D 0.0832, S -0.0341, V -0.0483
P338: R 0.00053, Y -0.0269, L -0.061, W 0.053, I -0.0572, M 0.0756, V -0.0391, K 0.0337, F -0.101, Q -0.00645, C -0.0613, N -0.066, E -0.133, D -0.0378, S -0.0346, A -0.066, T -0.0578, G -0.0299, H -0.0311
